From patent publication US20220145291A1

Target: FasR on T-cells (Jurkat cells) (UniProt P25445)
Experiment: cell-based or functional assay

streptavidin-FasL, sequence (P22629 37-163): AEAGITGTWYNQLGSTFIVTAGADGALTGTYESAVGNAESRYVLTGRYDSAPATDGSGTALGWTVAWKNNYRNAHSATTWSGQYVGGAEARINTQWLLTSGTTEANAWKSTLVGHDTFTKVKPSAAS
FasR on T-cells (Jurkat cells), sequence (P25445 26-335 limits assumed): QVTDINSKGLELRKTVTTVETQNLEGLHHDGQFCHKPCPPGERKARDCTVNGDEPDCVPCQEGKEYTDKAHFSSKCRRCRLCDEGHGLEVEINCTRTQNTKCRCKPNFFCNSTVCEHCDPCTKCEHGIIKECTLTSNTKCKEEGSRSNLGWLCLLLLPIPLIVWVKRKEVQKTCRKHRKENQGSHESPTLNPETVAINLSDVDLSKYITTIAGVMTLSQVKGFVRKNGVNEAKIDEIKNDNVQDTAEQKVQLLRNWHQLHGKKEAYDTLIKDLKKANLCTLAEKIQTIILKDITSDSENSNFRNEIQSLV

- apoptosis in Jurkat cells, flow cytometry (Annexin V); SA-FasL tethered on exosomes, 1 µg exosome protein: 17.5%
- apoptosis in Jurkat cells, flow cytometry (Annexin V); SA-FasL tethered on exosomes, 20 µg exosome protein: 99.3%
Substance: streptavidin-FasL (from UniProt P22629 37-163) (ligand)
